Laboratory results taken from the nanobody polyreactivity screen of Harvey et al. (2022).

Test: yeast display, Sf9 membrane polyspecificity reagent, FACS + sequencing; frameworks hold sequencing errors
How it was run: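 A nanobody's polyreactivity label depends on the gate it was sorted from. Yeast display cells were stained with 10% biotinylated, detergent-solubilized Sf9 membrane reagent for 1 hour at 4 °C, enriched on streptavidin microbeads and sorted by FACS. The low and high (top ~1%) gates were set on anti-HA fluorescence for expression and streptavidin fluorescence for reagent binding.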

Row | Sequence | polyreactivity (PSR sort gate)
1 | HVQLVESGGGLVQAGGSLRLSCAASGRIFGYNAMGWYRQAPGKEREFVATITYNDGSTYYADSVKGRFTMSRDNAKNTVYLQMNSLKPEDTAVYYCAADLIWTVYGWKYDYWGQGTHVTVSS | low polyreactivity
2 | QGQLVESGGGLVQAGGSLRLSCAASGRIFAGNAMGWYRQAPGKDRELVAAISKSGRSTYYADSVKGRFTISRDNAKNTVYLQMNSLKPEDTAVYYCAKLYYPVSDQYDYYYWGQGTQVTVSS | low polyreactivity
3 | QVQLVESGGGLVQAGGSLRLSCAASGFTFGYYTMGWYRQAPGKERELVASISRTGGRTYADSVKGRFTISRDNAKNTVYLQMNSLKPEDTAVYYCAAYRQGSAYDYWGQGTQVTVSS | high polyreactivity
4 | QVQLVESGGGLVQAGGSLRLSCAASGGIFYPYAMGWYRQAPGKERELVASIDVSDGSTYYADSVKGRFTISRDNAKNTVYLQMNSLKPEDTAVYYCAADRYSKAIDFEGDYWGQGTQVTVSS | low polyreactivity
5 | QVQLVESGGGLVQAGGSLRLSCAAYGRIFTINAMGWYRQAPGKERELVASIRSTGGSTYYADSVKGRFTISRDNAKNTVYLQMNSLKPEDTAVYYCAADGGVAWGYGYWGQGTQVTVSS | low polyreactivity
6 | QVQLLESGGGLVQAGGSLRLRCAASGFTFRKYTMGWYRQAPGKERELVAAISSGVSTNYADSVKGRFTISRDNAKKTVYLQMNSLKAEDTAVYYCAARGGYYQGRYKYGYWGQGTQVTVSS | high polyreactivity
7 | QVQLVESGGGLVQAGGTLRLSGAASGRTLRRYAMGWYRQAPGKARELVATISGRGGSTYYADSVKGRFTISRDNAKNTVYLQMNSLKPEDTAVYYCAADSVLSKYDYWGQGTQVTVSS | high polyreactivity
8 | LVQLVESGRGLVQAGGSLRLSCAASGSTFRINAMGWYRQAPGKERELVADINSGGNTTYADSVKGRFTISRDNAKNTVYLQMKSLIPEDTAVSYCAADPVFDLWEFLLDYGYDYWGQGSQVTVSS | low polyreactivity
9 | QVHLVESGGGLVQAGGSLRLSCAASGFTFTRYAMGWYRQAPGKERELVAAISFSGGSTYYADSVKGRFTISRDNAKNTVYLQMNSLKPEDTAVYYCAGRWSVSYQYWGQGTQVTVSS | high polyreactivity
10 | QVQLVESGGGLVQAGGSLRLSCAASGRIFGTNAMGWYRQAPGKESELVATITRGGGNTYYADSVKGRFTISRDNAKNTVYLQMISLKPEDTAVYYCGAKFHRFAWYSHYDYWGQGTQVTVSS | low polyreactivity
11 | QVQLVESGGGIVQAGGSHRLSCAASGRTFYRYAMGWYRQAPGTERELVAAITRRSGNTYYADSVKGRFTISRDNAKNNVYLQMISLKPEDTAVYYCAADPETWSPHYESLGYYWGQGTQVTVSS | high polyreactivity
12 | QVQLVESGGGVVQAGRSLRLSCAASGRLFYEYAMGWYRQAPGKEREFVAAISYSGSRTYYADSVKGRFTISRDNAKYTVYLQLNCLIPEDTAVYYCAAVVAFGTGTFYYWGQGRQVTVSS | high polyreactivity
13 | QVQLVESGGGLVQAGGSLRLSCAASGRIFSSYAMGWSRQAPGKERELVAAISSSGGNTYYADSVKGRFTISRDNAKNTVYLQMNSLKPEDTAVYYCNTRWVHRDWYDYWGQGTQVTVSS | high polyreactivity
14 | QVQLVESGGGLVQAGGSLRLSCAASGSTFASNMGWYRQAPGKERELVAGIRSSGSTYYADSVKGRFTISRDNAKNTVYLQMNSLKPEDTAVYSCNKGDYRTYPYDYWGQGTQVTVSS | low polyreactivity
15 | QVQLVESGGGLVQAGGSLRLSCAASGSTLAPYVMGWYSQAPGKERELVAVISTRTGRTYYADSVKGRFTISRDNAKNTVSLQMNSLKPEDTAVYYCNAYPHAYTGSTREGDYWGQGTQVTVSS | high polyreactivity
16 | QVQLVESGGGLVQAGGSLRLSCAASGSILVDYAMGWYRQAPGKERELVASITRDGSTNYADSVKGRFTISRDNAKNTVYLQMNSLKPEDTAVYYCAAKYAWRLLEMYYWGQGTQVTVSS | low polyreactivity
17 | QVQLVESGGGLVQAGGSLRLSCPASGGNFPFNGMGWSRQAPGKERELVAAISSGGRTYYADSVKGRFTISRDNAKNTVYLQMNSLKPEDTAVYYCAARTSRYYYYPYAFYWGQGTQVTVSS | high polyreactivity
18 | QVQLEDSGGGLVQAGGRLRLTCAASGSIFSLNAMGWSRKAPGKERELVAAINSGGTTNYADSVKGRFTISRDNAKNTVYLQMNSLKPEDSAVYYCATDGYYYYYRVYKFDYWGLGTQVTVSS | low polyreactivity
19 | QVQLVESGGGLVQAGGSLRLSCAASGSIFYRNAMGCSRQARGKERELVAAISSSGTRTYYADSVKGRFTISRDNAKNTVYLQMNILKPEDTAVYYCAAGVVLWYRRRYYYWGQGTQVTVSS | high polyreactivity
20 | QVQHVESGGGLVQAGGSLRLSCAASGIIFLRYGMGWYREAPGKERELVPAISSGGSTNYADSVKGRFTISRDNAKNTVYLQLNSLKPEDTAVYYCAALYGRGRPQDSTFLFDYWGPGTQVTVSS | low polyreactivity
21 | QVQLVESGGGLVQAGGSLRLSCAASGSTFRHNAMGWYRQAPGKERELVAAITRSGGRTFYADSVKGRFTISRDNAKNTVYLQMNSLKPEDTAVYYCWGLGTQVTVSS | low polyreactivity
22 | QVQLVESGGGLVQAGGSLRLICAASGSIFDFYAMGWYRQAPGKERELVAAISRNGGSTYYADSVKGRFTISRDNAKNTFYLQMNSLKPEDTAVYYCNKTVYVGAKEYDYWGQGTQVTVSS | high polyreactivity

Row | Sequence | polyreactivity (PSR sort gate)
23 | QVQLVESGGGLVQAGGSLRLICAASGNTFRYYAMGWYRQAPGKERELDAAINSRGGTTSYADSVKGRFTISRDNAKNTVYLQMNSLKPEDTAVYYCAARSYYRGTFYPYYYWGQGTQVTVSS | high polyreactivity
24 | QVQLVESGGGLVQAGGSLRLSCSASGRTFVRNAMGWYRQAPGKERELVAAISSIGDSTYYADSVKGRFTISRDNAKNTVYLQMNSLKPEDTAVYYCNARGYVYYRMGYWGQGTQVTVSS | low polyreactivity
25 | QVQLVESGGGLVQAGGSLRLSCAASGSTFDPYAMGWYRQAPGKERELVATINTGGDTHYADSVKGRFTISRDNAKNTVYLQMNSLKPEDTAVYYCNADYGKSRWIFDYWGQGTQVTVSS | low polyreactivity
26 | QVQLVESGGGLVQAGGSLRLSCAASGRIFLVYAMGWSRPAPGKERELVAAISYSGGRTYYADSVKGRFTISRDNAKNTVYLQMNSLKPEDTAVYYCAASPRYSYLAQGLDYDYWGQGTQVTVSS | high polyreactivity
27 | QVQLVESGGGLVQAGGSLRLSCAASGRIFSRYAMGWYRQAPGKERELVATISSGGGTYYADSVKGRFTISRDNAKNTVYLQMNSLKPEDTAVYYCAVQVWYGRYYYWGQGTQVTVSS | high polyreactivity
28 | QVQLVESGGGLVQAGGSLRLSCAASGITFLNYAMGWYRQAPGKERELVAAISWSGGRTYYADSVKGRFTISRDNGKNTVYLQMNSLKPEDTAVYYCAADRGVNSYGYWGQGTQVTVSS | high polyreactivity
29 | QVQLVESGGGLVQAGGSLRLSCAASGRIFRGSAMGWYRQAPGKERELVATINASGGTTYYADSVKGRFTISRDNAKNTVYLQMNSLKPEDTAVYYCNARFRRFFSGYGYWGQGTQVTVSS | high polyreactivity
30 | QVQLVESGGGLVQAGGILRISCAAYGSIFLAYVMGWYRQAPGKERELVAAISYRGGSTYYADSVKGRFTISRDNSKNTVYLQMNSLKPEDTAVYYCAAEHLWGLYNYWGQGTQVTVSS | low polyreactivity
31 | QVQLVESGGGLVQAGGSLRLSCAASGRIFARYVMGWYRQAPGKERELVAAISRRAGNTYYADSVKGRFTISRDNAKNTVYLQMNSLKPEDTAVYYCAVRYSYYALSTSRYGYWGQGTQVTVSS | high polyreactivity
32 | QVQLVESGGCLVQAGCSGRLSCAASGYTLTINVMGWDRQAPGKERELVAAITTSCASTNYADSVKGRFTISRDNAKNSVYLKMNSLKPEDTSVYYCAADYLSFVVVKLYGYWGQRTQVTVSS | low polyreactivity
33 | QVQLVESGGGLVQAGGSLRLSCAASGRIFLYNAMGWYRQAPGKERELVASISSGDTTNYADSVKGRFTISRDNAKKTVYLQMNSLKPEDTAVYYCAADGQYSVIVKYDSWGQGTQVTVSS | low polyreactivity
34 | QVQLVESGGGLVQAGGSLRLSCAASGFTFSYYVMGLYRQAPGKERELVAAITSGGSTYYADSVKGRFTISRDNAKNTVYLQMNSLKPEDTAVYYCNARTYSRVTRQTYRYRPYDYWGQGTQVTVSS | high polyreactivity
35 | QVQLVESGGGLVQAGGSLRLSCAASGITFDDNAMGWYRQAPGKERELVATISDGGRTYYADSVKGRFTISRDNAKNTVYLQMNSLKPEDTAVYYCAAGYPYYHVYGYGYWGQGTQVTVSS | low polyreactivity
36 | QVQLVESGGGLVQAGGSLRLSCAASGRIFPRYAMGWYRQAPGKERELVATISSGGSTYYADSVKGRFTISRDNAKNTVYLQMNSLKPEDTAVYYCAARKRPYTVINGMDYWGQGTQVTVSS | low polyreactivity
37 | QVQLVESGGGLVQAGGSLRLSCAASGSIFNYNMGWYRQAPGKERELVAAVSTNYADSVKGRFTISRDNAKNTVYLQMNSLKPEDPAGYYCGVTPEKSGDQYDYWGPGTQVTVSS | low polyreactivity
38 | QVQLVESGGGLVQAGGSLRLSCAASGRTFRYYAMGWYRKAPGKERELVATISKSGGSTYYADSVKGRFTISRDNAKNTVYLQMNSLKPEDTAVYYCAAVGPYRWYDYWGQGTQVTVSS | high polyreactivity
39 | QVQLVESGGGLVQAGGSIRLSCSASGRIFNRNAMGWYRKAPGKERELVAAISSDTSTNYADSVKGRFTISRDNAKNNVYLQMNSLKPEDTAVYYCNADGYYDMDYWGQGTQVTVSS | low polyreactivity
40 | QVQLVDSGGGLVQAGGSLRLSCDASGITFYDYAMGLYRQAPGKEMEFVASITSSGGYTYYADSVKGRFTISRDNAKNTVYLQMNILKPEDTSVYYCNVRYKRNRWQYDYWGQGTQVTVSS | high polyreactivity
41 | QVQRVESGGGLVQAGGSLRLSCAASGFIFPWYAMGWYRQAPGKESELVAAISRGGRTNYADSVKGRFTISRDNAKNTVYLQMNSLKPEDTAVYYCAKKYYLSGSRADDSGGQGTQVTVSS | high polyreactivity
42 | QVQLVESGGGLVQAGGSLRISCAPSGSTFYYNAIGWSRQAPGKERELVARISRSGGSTYADSVKGRFTISRDNAKNTVYLQMNSLKPEDTAVYYCNADAYGTPEFTSYAVRYDYWGQGTQVTVSS | low polyreactivity
43 | QVQLVESGGGLVQAGGSLRVSCAASGGTFTAYAMGGYIQAPGNERQLVAAISASGDSTYYADSVKGRFTISRDNPKHTVYLQMNSLKPDDTAVYYCAADWAYKYELDYWGQGTQVTVSS | low polyreactivity
